Measured values published in the domain aggregation screens of Martell et al. (2025).

Assay: soluble fraction after stress (log2 fold change); higher = more stays soluble; pooled small domains, quantitative proteomics
Conditions: stress: 50 degC
Outline: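 Quantitative proteomics served as the high-throughput read-out for pooled custom libraries of small protein domains. Each was stressed at 50°C. Aggregation propensity is expressed as the base-two log fold change in soluble protein after stress. A higher value means a larger share of the protein remains in solution.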

Row | Sequence | soluble fraction (log2)
1 | HMETGFADTLRKFRKEADMTQEKLAEALGVTTGAVYKWENGRSTPEVRLLVEMADLFGTSVDALLDYKVR | -0.622
2 | HMVIVMRKDADAASIEKVVSEVKSRGFMPHVSEGESRTLIGAIGPAPTEELREHFAGLAGVETVVRITK | 0.113
3 | HMTVLPTEQDAKALVGLGEEEAAKIVEGNGWTYRIGSRDGEQFMLTEDFVTSRLTLGIEKAIVMTATI | -0.915
4 | HMGRKPVSPEIVERVLQLAKSNPDWGYEHIAGTMRYLGYNVSATTIRHILEANGIVPDPERRL | -0.128
5 | HMPSPFYIMDEVEAALDDTNLGRLITLFEELRDSSQLIVITHQKKTMEIADALYGVTMRGDGITTVVSQRL | -0.343
6 | HMSLNNAHNTIFPRIIELMEMKQLENVLLIGGGIIPRKDIESLESSGVTKLYGPGTPVKETIEFITNWVK | -0.268
7 | HMDTRSSARKALDAVNLLLETYGAKAYQHSYEIAGRRQQFQTPGDFMAFRSRLMAEVATEENAARINA | 0.152
8 | HMATVNIGNLTFTHKGDYASGTTYAKNDVVYYSTNGNAYIAKQATQGNAPTSTAHWDVFAAGSGG | -0.161
9 | HMTNKKIILEIFQNSDKPLIVEEISKKMFEKTGKKMILSTIYRNLKNMEDVGILKKIYNEDGSYMYIF | -0.953
10 | HMRQPRGQRVTVREASSLLPFLFAHLTDRSRSAVKSLLRHGQIWVNGRVTTHFDMPLRPGDTVLISHERG | -0.347
11 | HMELEFLTEKQKEALILAVNRGYYDVDSEVTLKRLADELGIARSTYGEHLKRAESEALKMVVSDLLRD | -0.382
12 | HMSQVHYAVLFKNASAAEATEIVTYARETLGVQDIKINANGDILVPEDKVEEMRVSMSIAGFPK | 0.22
13 | HMDHAVINSEEVTIKDLSEKIGVSAAEIIKALFTEGIIKTINDKIEYEYAQYVAGMFGVELTLKL | 0.277
14 | HMQTLGADLRALRKARGLTLTDMAETLGRSVGWLSQVERDLSEPSITDLRHMARTLGVSVSMLFS | -1.41
15 | HMLADEPTGALDSKTSVQIMALLTEIAQDRLVIMVTHNPELADEYATRIVNLRDGVISDDSDPFNP | -0.079
16 | HMTVKKLTINEDNSGRRIDNYLLSIFNSLPRSKIYNIIRKGEVRVNSSRIKPNYRLEQGDLVRIPPNLEFT | 0.0953
17 | HMSELIDSLTEAVRSAPDAVPLRLHLAELLLADGQRDRAFAQLGQVLAKDPQNARALEMLGVGS | -0.0386
18 | HMDVRLAKVYMLPANPYLRFIEFDDGTHGKFRAKPGKFGLGSVVKVKREDGDMYTLEGNYDGKDRL | -0.555
19 | HMAEPYDERKVMEQMIPKGKNTIVAHLGHLKDHGETGYLQEALSYLRERESELGFDLKEVRALVHN | 0.251
20 | HMKDNIRSILEDIPNIGPGRRRALLKHFGSIEAIRRASLEDLIKVDGMNRNAALSIMEYFGM | -0.159
21 | HMVGGIAIGQFNVPRGSVKVTAGGRLLQEGLDYTVNYQAGRVQILDESLKNSNVPIEISTESNS | 0.229
22 | HMVPQAVQDIKAYLASGALPYIGPATAKKIVAMFGSDALDVIAEHPEQLTAIRGLNEEKANAIHQEFRRQF | -0.0649
23 | HMNTPNYDVLYRGLADADAGQIMEALQKSNIPFKVDSHSGVLLVPADQVHEARLKLASQGLPRG | 0.0262
24 | HMPTELVYTVPASAEGLRLDHFLVQHVPHMTRALATELTGAGGVRVNGRRAKKGDRLPSGAEVRLER | 0.178
25 | HMGVVEEVAADFEGRAVVGKVDVDEQTELARRFGIMSIPTLVVMKGGKVVEQAVGARGKADIAAMLERH | 0.0848
26 | HMGRRRAAPQEPLRQFPASPVTGQPIKLLLGQYGPYVTDGTTNASLPKGSSPDELTFEQATQLLAERALRG | 0.109
27 | HMRININNASARQIADALPGVGLKTARDIKDFQTTLSGERYTRLDQLHSIKRVDWDEIFKADLVRV | -0.0293
28 | HMSRMLTVKQREVFDLAMREGYWETPRRITLTMLASLLSVSKSTLSVQLHKIEGTVLSSFSDEVRRRS | -1.49

Row | Sequence | soluble fraction (log2)
29 | HMDVLFGNRLRQLLDERNISQAHFADRIGVSRSRMNNYVAQRSEPDYATLIRIANTLDTSIDFLLGKS | -1.93
30 | HMHEIVDTVLQVKQSVEADPLIAPALKNKEIVFQLNAKGVFQFKNAVIQVASALGISKNTVYMHLRNNK | -1.89
31 | HMVIMDLIVNGEPKYVVGEQLHLILDELGYSGKHFVVELNGEILSKEAYTTTKLTAADRLEIVSFVGG | -3.5
32 | HMARTDVKLREVAQELLRMGLLEESLRPHLYRTALASMERLNATLEPLDLIARADEIRGLVFLAVRH | -2.44
33 | HMPVFSAEQVAKAEADVQKVANKVQEAGADVEKLTTIHNWLLAREKYMPPDLFSTANQIIATAFQKAG | 0.112
34 | HMGLLLSQLDKDYQRYIDLADSTFRDNQLAVSRGWYNRALGVKAAEKYPKDQIAEIEKKIAERM | -0.181
35 | HMNMLGEQVRNIRKSRGFTLKALAEQTGLSIGYISQIERNLTDPSLSTLRKISAALDVPTYLFMG | -1.55
36 | HMTNTDYPGKVVPVDPDGKTLKPDGDASYNDKPGTKVKTPTVPGYTAEVPNVEVPVGGGDIKVTYHKKPV | 0.372
37 | HMDQHERQQLLIHIAGGEREALAELYQRTRSAVYGLALSYLKNAHDAQDLTRDVYVQVWDRA | 0.344
38 | HMLDNHPQSKKIRALWLEMAAAGVVRDSSEQALALWVKRETGISALRWLSNEQASSVIEKLKKWQRRAAG | -0.687
39 | HMGAIVTGTVVEIRSDVVIVNAGLKSEGVVPIEQFRNEAGELEVSVGDEVKVALDALEDGFGETRLS | -0.329
40 | HMRTIGDSVYEKIKYDIVHLTLKPGEKLSEASLAEKYGISKAPIRVALRKLQEEGLIVIRPQSGSIVSP | -0.568
41 | HMDLLKANNLSQINVDKLTDEEILKYSQQLKQSGLTESQAEQIAIARGMPATEIAKLKQRLISLTNMQ | 0.133
42 | HMQADKYKSYTATDFLKDKDFLRWQLFNGEEDMLFWGRVIEEYPALRSRVEEGIVLYKDNIR | -0.981
43 | HMDNPPDRAEIEQMLKDAGLTPEADAMAALSDLARTLDPGDFRQTLEKITLYKLGDSTPIGLDDIAAGAP | -0.0256
44 | HMTLDEFTDLMNLFKTGHIEQKPVILYGYNYWTSLKSWFEFNNMKFPEMYIDGIINTVDEFKILYNKIF | -0.982
45 | HMEFTFTLPRGYIDDTGMIHREGTMRLANAADEILPLKDPRVQQNPGYLTIILLARVITKLGSL | 0.277
46 | HMDDTVILPIQINGKRRAEISVPKAMPASEVEKLALANEDVLRFLAGQPIKKLIVVPGRIINVV | 0.179
47 | HMYTTHTQSELNEAARFNGRATYQKGIYYNESKKEHFKVVNGKYQALPNVKQVNGDSWIDKTGITHKG | -0.171
48 | HMFDENVKLIENEYDVSIISRGSELKVMGDVENVDKAARALRSMLAMINKGESLTEQNVRYVLTLVNEGNE | -0.527
49 | HMENMETSDIVARYSNMPGGIIEAFHEIVDRHGFLSQEAIIEAARGFGISVAEAYGVATFYSMFS | -0.336
50 | HMVLLGAAIRELRIQKGITIEELAEMSGLSTGLISKIERDLGNPSISSLRKISRALGVPTAFFFA | -3.07
51 | HMKNEQIFIVRPDAEGTRLDQWLAAQMASSEEAPSRMQIQRWIKAGLVEGQGTLNPARRIEAGESYTVKPG | 0.0493
52 | HMSTKRGEILEFLKDFSARKGYAPSVREIMQAVGLKSTASVHYHLSELHKAGLITVDGTKNRAISLA | -0.149
53 | HMEELTDSELNNLYRELFIARSNASDGVGIIEQKTIKGITYRLSNDNNYLIKELGNKEYIYKNGVWEEYT | 0.0711
54 | HMVFQTAAEKAYEIISKKIMKGEYEPGMRLVRRQLAQELGVSPIPILEAMKRLEQDGLIEYKAHWGSIVTI | -1.97
55 | HMTRVDKLQTWLSLPREQRDWDEGALMLLQLTGNKIMYRNLSVNPEGKANFIEGKLQQYLEFRLA | -1.26
